In IntAct's records for PubMed 31515488:

B1: Src kinase-associated phosphoprotein 1 (Homo sapiens), Q86WV1 (parent)
chain: MQAAALPEEIRWLLEDAEEFLAEGLRNENLSAVARDHRDHILRGFQQIKARYYWDFQPQGGDIGQDSSDDNHSGTLGLSLTSDAPFLSDYQDEGMEDIVKGAQELDNVIKQGYLEKKSKDHSFFGSEWQKRWCVVSRGLFYYYANEKSKQPKGTFLIKGYGVRMAPHLRRDSKKESCFELTSQDRRSYEFTATSPAEARDWVDQISFLLKDLSSLTIPYEEDEEEEEKEETYDDIDGFDSPSCGSQCRPTILPGSVGIKEPTEEKEEEDIYEVLPDEEHDLEEDESGTRRKGVDYASYYQGLWDCHGDQPDELSFQRGDLIRILSKEYNMYGWWVGELNSLVGIVPKEYLTTAFEVEER
B2: Gem-associated protein 6 (Homo sapiens), Q8WXD5 (parent)
chain: MSEWMKKGPLEWQDYIYKEVRVTASEKNEYKGWVLTTDPVSANIVLVNFLEDGSMSVTGIMGHAVQTVETMNEGDHRVREKLMHLFTSGDCKAYSPEDLEERKNSLKKWLEKNHIPITEQGDAPRTLCVAGVLTIDPPYGPENCSSSNEIILSRVQDLIEGHLTASQ
B3: Zinc finger protein 774 (Homo sapiens), Q6NX45 (parent)
chain: MWLGTSGKSGLPGHCLENPLQECHPAQLEEWALKGISRPSVISQPEQKEEPWVLPLQNFEARKIPRESHTDCEHQVAKLNQDNSETAEQCGTSSERTNKDLSHTLSWGGNWEQGLELEGQHGTLPGEGQLESFSQERDLNKLLDGYVGEKPMCAECGKSFNQSSYLIRHLRTHTGERPYTCIECGKGFKQSSDLVTHRRTHTGEKPYQCKGCEKKFSDSSTLIKHQRTHTGERPYECPECGKTFGRKPHLIMHQRTHTGEKPYACLECHKSFSRSSNFITHQRTHTGVKPYRCNDCGESFSQSSDLIKHQRTHTGERPFKCPECGKGFRDSSHFVAHMSTHSGERPFSCPDCHKSFSQSSHLVTHQRTHTGERPFKCENCGKGFADSSALIKHQRIHTGERPYKCGECGKSFNQSSHFITHQRIHLGDRPYRCPECGKTFNQRSHFLTHQRTHTGEKPFHCSKCNKSFRQKAHLLCHQNTHLI
B4: Tektin-4 (Homo sapiens), Q8WW24 (parent)
chain: MAQTVPPCELPCKEYDVARNTGAYTSSGLATASFRTSKYLLEEWFQNCYARYHQAFADRDQSERQRHESQQLATETQALAQRTQQDSTRTVGERLQDTHSWKSELQREMEALAAETNLLLAQKQRLERALDATEVPFSITTDNLQCRERREHPNLVRDHVETELLKEAELIRNIQELLKRTIMQAVSQIRLNREHKETCEMDWSDKMEAYNIDETCGRHHSQSTEVQAHPYSTTFQESASTPETRAKFTQDNLCRAQRERLASANLRVLVDCILRDTSEDLRLQCDAVNLAFGRRCEELEDARYKLHHHLHKTLREITDQEHNVAALKQAIKDKEAPLHVAQTRLYLRSHRPNMELCRDAAQFRLLSEVEELNMSLTALREKLLEAEQSLRNLEDIHMSLEKDIAAMTNSLFIDRQKCMAHRTRYPTILQLAGYQ
partner: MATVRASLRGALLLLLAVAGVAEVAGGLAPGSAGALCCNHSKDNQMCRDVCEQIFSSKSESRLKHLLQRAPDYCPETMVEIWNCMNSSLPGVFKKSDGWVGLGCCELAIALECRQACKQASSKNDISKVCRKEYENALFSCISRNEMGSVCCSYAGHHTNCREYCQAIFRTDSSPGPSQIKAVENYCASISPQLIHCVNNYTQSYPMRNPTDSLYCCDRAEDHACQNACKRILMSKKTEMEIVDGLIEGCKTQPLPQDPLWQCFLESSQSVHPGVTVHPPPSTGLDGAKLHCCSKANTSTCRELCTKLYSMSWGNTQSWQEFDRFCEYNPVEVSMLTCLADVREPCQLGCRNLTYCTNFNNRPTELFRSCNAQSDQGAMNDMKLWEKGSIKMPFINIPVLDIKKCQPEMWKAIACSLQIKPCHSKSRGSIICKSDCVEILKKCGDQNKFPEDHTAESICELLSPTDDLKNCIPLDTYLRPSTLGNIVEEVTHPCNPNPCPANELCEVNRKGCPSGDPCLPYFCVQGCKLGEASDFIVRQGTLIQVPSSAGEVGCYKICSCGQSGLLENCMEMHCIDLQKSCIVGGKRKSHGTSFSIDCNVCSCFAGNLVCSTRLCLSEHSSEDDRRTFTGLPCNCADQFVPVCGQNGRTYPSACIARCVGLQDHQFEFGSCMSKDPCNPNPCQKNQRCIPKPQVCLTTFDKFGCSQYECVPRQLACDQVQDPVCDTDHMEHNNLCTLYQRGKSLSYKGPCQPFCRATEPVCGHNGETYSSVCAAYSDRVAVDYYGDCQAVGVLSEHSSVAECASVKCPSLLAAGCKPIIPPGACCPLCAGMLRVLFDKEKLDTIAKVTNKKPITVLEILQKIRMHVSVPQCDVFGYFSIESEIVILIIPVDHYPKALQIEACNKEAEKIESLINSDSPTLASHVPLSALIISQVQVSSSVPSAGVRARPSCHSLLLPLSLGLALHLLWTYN

Variants of: B1
Conditions: with pram_human PRAM1, Q96QH2
Sequence of pram_human PRAM1, Q96QH2 (Q96QH2 whole entry): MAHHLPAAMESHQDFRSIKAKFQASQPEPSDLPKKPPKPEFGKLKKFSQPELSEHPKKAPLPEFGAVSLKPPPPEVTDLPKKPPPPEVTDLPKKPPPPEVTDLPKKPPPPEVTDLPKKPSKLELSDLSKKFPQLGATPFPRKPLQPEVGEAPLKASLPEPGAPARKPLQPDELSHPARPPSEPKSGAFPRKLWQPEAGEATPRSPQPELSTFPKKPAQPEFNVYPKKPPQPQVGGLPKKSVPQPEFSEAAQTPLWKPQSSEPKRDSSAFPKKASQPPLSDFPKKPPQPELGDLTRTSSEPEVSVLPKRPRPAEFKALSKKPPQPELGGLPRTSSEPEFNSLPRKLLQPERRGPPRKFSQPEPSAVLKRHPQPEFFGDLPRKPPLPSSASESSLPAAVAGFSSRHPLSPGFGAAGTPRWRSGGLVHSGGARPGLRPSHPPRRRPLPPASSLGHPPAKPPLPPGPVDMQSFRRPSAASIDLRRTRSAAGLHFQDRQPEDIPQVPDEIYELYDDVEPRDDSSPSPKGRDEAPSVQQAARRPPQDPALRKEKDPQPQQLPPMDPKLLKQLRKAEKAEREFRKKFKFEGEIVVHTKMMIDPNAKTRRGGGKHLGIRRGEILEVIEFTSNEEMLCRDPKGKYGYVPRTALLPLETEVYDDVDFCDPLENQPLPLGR

Variant	effect of a mutation on the interaction
MQAAALPEEIRWLLEDAEEFLAEGLRNENLSAVARDHRDHILRGFQQIKARYYWDFQPQGGDIGQDSSDDNHSGTLGLSLTSDAPFLSDYQDEGMEDIVKGAQELDNVIKQGYLEKKSKDHSFFGSEWQKRWCVVSRGLFYYYANEKSKQPKGTFLIKGYSVRMAPHLRRDSKKESCFELTSQDRRSYEFTATSPAEARDWVDQISFLLKDLSSLTIPYEEDEEEEEKEETYDDIDGFDSPSCGSQCRPTILPGSVGIKEPTEEKEEEDIYEVLPDEEHDLEEDESGTRRKGVDYASYYQGLWDCHGDQPDELSFQRGDLIRILSKEYNMYGWWVGELNSLVGIVPKEYLTTAFEVEER [G161S]	with no effect

Variants of: B2
Conditions: with gemi7_human GEMIN7, Q9H840
Sequence of gemi7_human GEMIN7, Q9H840 (Q9H840 whole entry): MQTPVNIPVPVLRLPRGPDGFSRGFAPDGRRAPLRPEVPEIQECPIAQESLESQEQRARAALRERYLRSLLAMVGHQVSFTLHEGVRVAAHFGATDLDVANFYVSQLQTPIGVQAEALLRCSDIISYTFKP

Variant	effect of a mutation on the interaction
MSEWMKKGPLEWQDYIYKEVRVTANEKNEYKGWVLTTDPVSANIVLVNFLEDGSMSVTGIMGHAVQTVETMNEGDHRVREKLMHLFTSGDCKAYSPEDLEERKNSLKKWLEKNHIPITEQGDAPRTLCVAGVLTIDPPYGPENCSSSNEIILSRVQDLIEGHLTASQ	with no effect
MSEWMKKGPLEWQDYIYKEVRVTASEKNEYKGWVLTTDPVSANIVLVNFLEDGSMSVTGIMGHAVQTVETMNEGDHRVREKLMHLFTSGDGKAYSPEDLEERKNSLKKWLEKNHIPITEQGDAPRTLCVAGVLTIDPPYGPENCSSSNEIILSRVQDLIEGHLTASQ	with no effect
MSEWMKKGPLEWQDYIYKEVRVTASEKNEYKGWVLTTDPVSANIVLVNFLEDGSMSLTGIMGHAVQTVETMNEGDHRVREKLMHLFTSGDCKAYSPEDLEERKNSLKKWLEKNHIPITEQGDAPRTLCVAGVLTIDPPYGPENCSSSNEIILSRVQDLIEGHLTASQ	with no effect
MSEWMKKSPLEWQDYIYKEVRVTASEKNEYKGWVLTTDPVSANIVLVNFLEDGSMSVTGIMGHAVQTVETMNEGDHRVREKLMHLFTSGDCKAYSPEDLEERKNSLKKWLEKNHIPITEQGDAPRTLCVAGVLTIDPPYGPENCSSSNEIILSRVQDLIEGHLTASQ	with no effect

Variants of: B3
Conditions: with trim1_human MID2, Q9UJV3
Sequence of trim1_human MID2, Q9UJV3 (Q9UJV3 whole entry): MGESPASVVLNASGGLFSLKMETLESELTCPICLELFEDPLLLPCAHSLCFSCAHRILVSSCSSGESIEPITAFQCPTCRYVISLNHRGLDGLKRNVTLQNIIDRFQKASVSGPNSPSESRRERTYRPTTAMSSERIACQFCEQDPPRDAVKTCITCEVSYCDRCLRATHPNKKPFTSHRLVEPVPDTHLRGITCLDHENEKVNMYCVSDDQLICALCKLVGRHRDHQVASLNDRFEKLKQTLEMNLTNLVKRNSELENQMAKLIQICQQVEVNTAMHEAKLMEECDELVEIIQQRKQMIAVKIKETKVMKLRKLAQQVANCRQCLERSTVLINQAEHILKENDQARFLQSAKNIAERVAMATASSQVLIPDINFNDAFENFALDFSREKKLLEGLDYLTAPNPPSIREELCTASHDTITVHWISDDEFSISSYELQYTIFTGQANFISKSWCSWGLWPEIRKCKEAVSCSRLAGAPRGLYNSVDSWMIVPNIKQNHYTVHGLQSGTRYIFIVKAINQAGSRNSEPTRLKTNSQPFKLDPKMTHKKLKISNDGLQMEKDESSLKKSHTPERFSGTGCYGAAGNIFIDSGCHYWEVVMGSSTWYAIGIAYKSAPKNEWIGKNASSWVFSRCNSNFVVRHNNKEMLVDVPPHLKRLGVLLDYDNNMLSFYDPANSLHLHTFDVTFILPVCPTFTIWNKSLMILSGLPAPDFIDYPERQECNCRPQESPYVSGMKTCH

Variant	effect of a mutation on the interaction
MWLGTSGKSGLPGHCLENPLQECHPAQLEEWALKGISRPSVISQPEQKEEPWVLPLQNFEARKILRESHTDCEHQVAKLNQDNSETAEQCGTSSERTNKDLSHTLSWGGNWEQGLELEGQHGTLPGEGQLESFSQERDLNKLLDGYVGEKPMCAECGKSFNQSSYLIRHLRTHTGERPYTCIECGKGFKQSSDLVTHRRTHTGEKPYQCKGCEKKFSDSSTLIKHQRTHTGERPYECPECGKTFGRKPHLIMHQRTHTGEKPYACLECHKSFSRSSNFITHQRTHTGVKPYRCNDCGESFSQSSDLIKHQRTHTGERPFKCPECGKGFRDSSHFVAHMSTHSGERPFSCPDCHKSFSQSSHLVTHQRTHTGERPFKCENCGKGFADSSALIKHQRIHTGERPYKCGECGKSFNQSSHFITHQRIHLGDRPYRCPECGKTFNQRSHFLTHQRTHTGEKPFHCSKCNKSFRQKAHLLCHQNTHLI [P65L]	with no effect

Variants of: B4
Conditions: with reck_human RECK

Variant	effect of a mutation on the interaction
MAQTVPPCELPCKEYDVARNTGAYTSSGLATASFRTSKYLLEEWFQNCYARYHQAFADRDQSEWQRHESQQLATETQALAQRTQQDSTRTVGERLQDTHSWKSELQREMEALAAETNLLLAQKQRLERALDATEVPFSITTDNLQCRERREHPNLVRDHVETELLKEAELIRNIQELLKRTIMQAVSQIRLNREHKETCEMDWSDKMEAYNIDETCGRHHSQSTEVQAHPYSTTFQESASTPETRAKFTQDNLCRAQRERLASANLRVLVDCILRDTSEDLRLQCDAVNLAFGRRCEELEDARYKLHHHLHKTLREITDQEHNVAALKQAIKDKEAPLHVAQTRLYLRSHRPNMELCRDAAQFRLLSEVEELNMSLTALREKLLEAEQSLRNLEDIHMSLEKDIAAMTNSLFIDRQKCMAHRTRYPTILQLAGYQ [R64W]	with no effect
MAQTVPPCELPCKEYDVARNTGAYTSSGLATASFRTSKYLLEEWFQNCYARYHQAFADRDQSERQRHESQQLATETQALVQRTQQDSTRTVGERLQDTHSWKSELQREMEALAAETNLLLAQKQRLERALDATEVPFSITTDNLQCRERREHPNLVRDHVETELLKEAELIRNIQELLKRTIMQAVSQIRLNREHKETCEMDWSDKMEAYNIDETCGRHHSQSTEVQAHPYSTTFQESASTPETRAKFTQDNLCRAQRERLASANLRVLVDCILRDTSEDLRLQCDAVNLAFGRRCEELEDARYKLHHHLHKTLREITDQEHNVAALKQAIKDKEAPLHVAQTRLYLRSHRPNMELCRDAAQFRLLSEVEELNMSLTALREKLLEAEQSLRNLEDIHMSLEKDIAAMTNSLFIDRQKCMAHRTRYPTILQLAGYQ [A80V]	with no effect
